Results as given in PMC3470471 (Circulation research, 2012).

Target: the molecule itself
Assay: cross-linking

B1: myosin light chain 1 (rat cardiac myofibrils) (natural protein)
chain: not shown
For B1, the “stoichiometry N” value was 2.
